Experimental data published in a protein production outcome set (Wang et al. 2014).

Test: label from the status in PepcDB records

Sequence | protein production
MNNKQLDFTEGSITKKMVVFSWPIFLSNLLQTSYQITDSLWVGNLLGASALGALSISATVVFMVLSFIIGLNGATLTVLSQRQGAKDEAGLKASLNAFVFVLGLLAILLGLIGYFSASSILQLLGTPEEILPLAESYLKINFIGILFLFGYNFIGTVLRAMGDSRSPVRFIFIAVILNIILDPLMIAGFNLGIDGAAYATIVSQGTAFIYGLIYSVRKAGVPFQIPYVPEKRYFFVLFKLGLPAGLSMITISAGVTAILSVVTSFGEEAVAGFGAAQRLDSLIMLPALTLGSAVNTIAGQNIGANKWERVRATAKQGVMLIIAVTLIIGLITFIGAQFFIRLFVRDEATVAFGAMYIQTIAFFYPFLGINFVLNGIVRASGAMFPVLLLNIISFWILRYPLTYWMSDLFGERGIALGMGFAFVVSSLIATGYYFLGNWRKVGEELAQKTGHSKV | failed
MTIQDYMLETPVRMREIISNADSLFNEVKRTNLKKIIITGSGTSYHSGVQVQPYLQNLLDIDVVKMYPFMITEDTFKFDNENTLVVGVSQGGSSYSTYNAMKLAEDKGCKIASMAGCKNALIDEISDYILTVNCGEEKSGAKTKGYYCTKLNLMLLGLQIAREKGIISSEKYNEEINKILDAINRFEAVYKLSKQWIERNKEKLVNSKEIRIIGHSDIYGDTLEAALKLLETMRIPVTGYEFEEFIHGIYNAINSDSTIFILDTGKEPRVTKMIDVLSGWTENVFAIGRDVTENDKNLKIDITDNPYYQTFNFIVPIQLICGEIPTLRGVDPSVPKDTRFHMKLGSKKLNK | not failed
MSQSMYSYPAMTANVGDMAGYTGTTQSLGADIASERTAPSRACQGDLGMSHQDWQAQWNQAMEALARAYRRCRRALRQIGVLERPVGDSSDCGTIRVGSFRGRWLDPRHAGPATAADAGD | failed
MISIPVAQQQKLPRLVLPRVYGFPPNRETLGGTAYLIVENDGNTLIDSPPWTDGSQHWLREQGGVKRLILTHRGAIARVRAIQDTFDCEVMIHAQEAYLLPQVTVTPFNHHLAIGETLEILWTPGHSPGSACVYWSCQGGVLFTGRHLLPTPTGELAPIKTATTFHWPRQLRSVEALKAFCRQKSLSYLCPGANMGFLRGTLAIANAQAVLQGLSVDNLLCDKFLEHHHHHH | failed
ILQLTSDTLILVDKNGTCLDIDPHSDLWFLQEDRLLGKNLFNLLPDHTFQKLLPDFRRVTQQGITVNRNYRLPLEGGETYYFKCIMQPYDGDKVLCQYRDIT | failed
MYESANVSDDADRTAFRRAEKKYKLYYEQDSKFSRKKKLPKPIDLSELLDFNLISQNFNNDGVLPDGIRVSKVDSSPVFCIDNRPGFYFIPDALSLKEQCKWIKESLTSFPQPPNRTNHNAIYGPIDDLFDSAKENKVLVQDDLTNNKWKFYEEVDIEKATRSSCKSVSASVLLRKLRWSTLGLQFDWSKRNYDVSLPHNNIPDALCQLAKTHAAIAMPDGEEFRPEGAIVNYFGIGDTLGGHLDDMEADWSKPIVSMSLGCKAIFLLGGKSKDDPPHAMYLRSGDVVLMAGEARECFHGIPRIFTGEENADIGALESELSHESGHFFAEYIKTSRININIRQVF | not failed
MSKDSESNLAQRQSQPKAHADLRINSHWIIPIENTTDHNLVSNILIDHCLLIKDGIILAIEPQSSCQIPATETLDLGQQVLMPGWVNAHGHAAMSLFRGLADDLPLMTWLQEHVWPAEAQHVDEHFVKQGTELAIAEMIQSGTTTFADMYFYPQQSGEAALAAGIRAVCFAPVLDFPTNYAQNADEYIRKAIECNDRFNNHPMNEQGLVQIGFGPHAPYTVSDEPLKEITMLSDQLDMPVQIHLHETDFEVSESLETFNKRPTQRLADIGFLNERVSCVHMTQVDDGDIKILQKTGASIIHCPESNLKLASGFCPIAKLSAANIPLAIGTDGAASNNDLDMFSETKTAALLAKGVSQDASAIPAIEALTMATLGGARALGIDDITGSLKPGKAADIQAIDLNTLSSQPVFDPVSHMVYCTKSTQVSHVWVNGRCLLKNGELTTLNEETLINHAKAWASAIRTPIK | not failed
MQENHLIDIARWSERPGPRGIPSICSAHPLVIEAAMLRAHREKAPVLIEATCNQVNQDGGYTGMTPEDFTRFVGAIADRIEFPREKILLGGDHLGPNPWKHLPADEAMAKAEAMITAYAKAGFTKLHLDTSMGCAGEPTALPDATTAARAARLAAVAEDAVGGRGGVLPVYIIGTEVPIPGGALEELDTLEVTAPEAAIETVRVHRAAFEEAGAAGAFSRVVGAVVQPGVEFGNENVIAYDRARAEKLSATLGQLHGMVFEAHSTDYQTPDALRELVADGFAILKVGPGLTFALREALYGLDQIAAFLFPAARERTLAEVTEAVMREEPANWAKYYHGSAEEQRLQRHFSYSDRIRYYWPHPKAAAAVDELMSLLDGVAIPETLISQFLAGSYARVRNGEVAPQAKPLALAAVDAVLQDYFAACRV | not failed
MTDFPTSLTSPGNRCEGCQQSQPLGFDFSFAYQPIVDLRDHSVFAHEALVRGVNGEGAGTVLGQVNDSNRYRFDQRCRTQAITLAAQLGMQSHLSINFMPNAVYRPELCIRSTLEAARAQRFPLDRLIFETLESQHVDNYRHLTNILREYREFGFKTAIDDFGSGYSGLNLLADFQPDLIKLDMALVRDVDQDRVRQAIIRAIVTMCAELGVTVIAEGIESAGERDFLSDCGIYLMQGYWFAKPAFKALAEVPAAAWNS | failed
MLDPHSRMPLYHQIESHLREVIRSGKWQAGEAIPPERLLIEQYGVSRITIRQALANLVAAGLLYRKHGRGTFVAGAKERPITESLANLTGHLEELQLRGLDPRVRVLALETRPMIAEVAEALQRSPGAEGWYLYRIVTVEQQPLMLSTVWLPCDLGVELNEELLKQHGMALLLTHNGIAPLRGSQRIGAMSAGPEEARLLGVRAGEAVLRVSRVIHGAADRPLVWFRTLYRSDRYEYEVELKRGRPHA | failed
MNNRELYGNIRDVYHLLQKNLDKAIEQYDISYVQFGVIQVLAKSGKVSMSKLIENMGCVPSNMTTMIQRMKRDGYVMTEKNPNDQRETLVYLTKKGEETKKQVDVQYSDFLKENCGCFTKEEEGILEDLLLKWKKHLN | not failed
MATLTRLFIHPVKSMRGIGLTHALADVSGLAFDRIFMITEPDGTFITARQFPQMVRFTPSPVHDGLHLTAPDGSSAYVRFADFATQDAPTEVWGTHFTARIAPDAINKWLSGFFSREVQLRWVGPQMTRRVKRHNTVPLSFADGYPYLLANEASLRDLQQRCPASVKMEQFRPNLVVSGASAWEEDSWKVIRIGDVVFDVVKPCSRCIFTTVSPEKGQKHPAGEPLKTLQSFRTAQDNGDVDFGQNLIARNSGVIRVGDEVEILATAPAKIYGAAAADDTANITQQPDANVDIDWQGQAFRGNNQQVLLEQLENQGIRIPYSCRAGICGSCRVQLLEGEVTPLKKSAMGDDGTILCCSCVPKTALKLTRLEHHHHHH | failed
MSNSQAGPGASVRRVLAVIPARGGSKGVPAKNLAPVGGVPLVVRAVRECLAARLVTDVVVSTDDQAIAAAAREAGAEVVLRPAAIAGDTATSEAAVLHAMDAHEALHGAAVDVVLLVQCTSPFLVREDVDGVAGAVVEDGADTAVTVAPFHGFVWRDGADEPGGADGGHGVNHDKAYRPRRQDRPQDLLETGAAYAMAAPGFRKHRHRFFGRTDLVRTDPARVLEIDDPHDLARARALAPHFDTARPGALPTAADIDAVVLDFDGTQTDDRVLIDTDGREFVSVHRGDGLGIAALRRSGLTMLILSTEVNPVVAARARKLKLPVLHGIDRKDLALKQWCEEQGIAPERVLYVGNDVNDLPCFALVGWPVAVASAHDAVRGAARAVTTVPGGEGAVREIAAWLLGPSLDALGPASETTPTLTQSKLEHHHHHH | not failed
MLGRAFQDLNRLRQISAAMARHGFGAYLERMRLRDVLGRDAPPPGQPLPPPDRTTAARFRTMLGELGPTFIKLGQLLSSRPDVLPSHWVDELEKLQDACPPVGVAEIREEIERGLGRPVEALFAALDPVPLASASIAQVHRATTHEGVQVVVKVQRPRIREQIESDLALLHDLAGLLEAVVEETGIYTPTGVMEEFDRTIHEELDFSNEARNATAMYETSAGREFLVIPRVHKALSCDTVLTLDYVEGVKVSDVTAEAGFDLEQVARNVIEASFRQLFEDGLFHGDPHPGNILVLPGNRIALLDFGLVGRLSRVQQEALVTLIVAVALRDPETVARVLNRIGVPDARAPITEFREDIRVILDRYLGLRLDEIRSATLLRDLLDLAIRHRIRIPKEYAVLAKASVTIEGIIRRLYPKLDILEVGLPYAKELLLSRFNPSDASGLVMRALLKLQGLAEDVPTQLSQILVDLEGGKFRVNVASDAIDRIGGHVRALGVLLFLGLLAAGLTVGGLVVLAGGEGLLGGLALGAAALLCAFAAAYHLATLRMRKISLRRWLKR | failed
MRFRDRRHAGALLAEALAPLGLEAPVVLGLPRGGVVVADEVARRLGGELDVVLVRKVGAPGNPEFALGAVGEGGELVLMPYALRYADQSYLEREAARQRDVLRKRAERYRRVRPKAARKGRDVVLVDDGVATGASMEAALSVVFQEGPRRVVVAVPVASPEAVERLKARAEVVALSVPQDFAAVGAYYLDFGEVTDEDVEAILLEWAG | not failed
ANLISPVCDMGSAVTAPVYAAILAYRDAVTQILGAPADFAQMMADEAISQILDLMRNEGIKNMEDKLNPKALTGTADSMCFGPLADILPASLKVLEKHANENKCECGCSIKP | failed
MTTIAVLGNGRVGGNLATALTRAGHEVTVADRTPGAAADTARTAQIVINATPGAGSLDRLAALRDELRDKILVDVSNATNDGPDGLPADLIYPGSSLAEHLQEALPETRVVKTLNTMLFPVMTAPATLTQTPTAFLSGEDPQAKQTVRELLTDLGWHKEWIADLGGIQTARATEAAILFVPHVIGATGFTPFAISIARLEHHHHHH | not failed
MSKVNQQDIDKLIELVGGRGNIATVSHCITRLRFVLNDPAIARPKEIEQLRMVKGCFTNAGQFQVVIGTEVGDYYKALLATTGQTSADKEQVKQA | not failed
MNMLIDISTEILMSLLFFYLFYRIMVKGTNGVIEILVEAMMFSMFVGLILYFQTRITFTTASMAVDMPMAIMGGAVAWAYFTRNSSMTTSRKSAFISLLISNEVAMAYFLTIITYPNIISHGVFYTLVHSVSSYLFIASMEIEMILSLLFLEKDSIKKIVFSGVVFSGLFNPFFMPQSNFSLYGTIYFTAVMVFFMAILFEIIAVKFDTMNFGKIVMITLFFGLMGFSAAGLFASIVFGSLITLLLFDISMMAQMAFYFYFLFRNTEIRGRPGWSYNRYSMFYVLLFSFAAEWLASASIISVVNGVNGVVPFLSNFGVGVYSGIVPAILNAIFIFGSVTNSYVFLIIMGVEMASLVIVRIGRLRWKEKNGISHSP | failed
MKLTDRLLKIASLVSDGKKIADIGTDHGYIPVYLLKEGKVPFAVLADVNKGPLDNAHKEVIQNNLLDKVDLRLGSGIEILEIGEVEEVIIAGMGGILISELLEAKKEVAHNVEKLILQPMQAQEELRYYLLNNGYEILEEVLVREDFRIYEIIVA | failed
MGSSHHHHHHSSGRENLYFQGEPPPSVRREFPLKVRLSTGKDVRLSASLPDTVGQLKRQLHAQEGIEPSWQRWFFSGKLLTDRTRLQETKIQKDFVIQVIIN | not failed
SLGVQPPNFSWVLPGRLAGLALPRLPAHYQFLLDLGVRHLVSLTERGPPHSDSCPGLTLHRLRIPDFCPPAPDQIDRFVQIVDEANARGEAVGVHCALGFGRTGTMLACYLVKERGLAAGDAIAEIRRLRPGSIETYEQEKAVFQFYQRTK | not failed
MRETVKLIEVARELPVSRKNLQMLLLLLLCGAAAYIINLADPALEPLFLALVFGIVAGNLQRDEEKKRVVERYVPFLLPIGITLYGVNINIPYLGEFHPEIVAATLISTSLIFLTVFWLSSRLKLSRQMSILLACGSGICGVSAIAIISPLIKPRKEEFSAAIMIITAVGLTGAILYPSIAHYASISPDEFAVLAGATLHQTGIVKISSQLFGVEEEALAIKGIRIAMIALVVLILSIIYSESRFYVPWYIVSFLGVALFSSTYLPGEVVQALRPLATVMFATTLAAICYTVNVGRVQRVGVKPLFASYAGWAVGVAFVLLLLGSGAL | failed
